Source: the Human Domainome abundance scans (Beltran et al. 2025)

B1: Retinoic acid receptor RXR-alpha, residues 132 to 208; numbered along this chain, P19793 (parent)
chain: KHICAICGDRSSGKHYGVYSCEGCKGFFKRTVRKDLTYTCRDNKDCLIDKRQRNRCQYCRYQKCLAMGMKREAVQEE

Variants of: B1
Assay: abundance fitness (aPCA) (normalised: wild type 0, dead -1); higher = more abundant; growth selection in yeast, the domain comes from the species named
Conditions: Homo sapiens

Abundance fitness of substitutions, site by site:
R30: L -0.178; W -0.167
Y16: Q 0.063; A 0.011; S 0.014; V 0.004; C -0.013; F 0.06; P -0.082
N43: C -0.115; R -0.003; W -0.008; P -0.065; D -0.181
G26: W -0.052; H -0.021; S -0.087; M -0.071; Y -0.081
T39: M 0.046; S 0.03; K 0.027; E 0.048; L -0.052; H 0.134; A -0.015
I48: P -0.007; E -0.162; Q 0.21; F -0.108; M 0.03; W 0.007; N 0.065; A -0.05
G8: N -0.017; M -0.07; V -0.228; W -0.1; H -0.062
A73: W -0.007; I 0.05; G -0.008
D9: C -0.898; R -0.243; W -0.141; E 0.098; F -0.321; V -0.424
K14: R -0.115; G -0.004; F 0.017; A -0.027; W -0.013; N -0.028; Q 0; M 0.001; T -0.039
T37: N 0.001; G 0.047; L -0.05; K 0.066; F -0.046
M67: W -0.055; F -0.017; I 0.007; N -0.006; G -0.023; P -0.621; C -0.019; V -0.009; E -0.016
D45: H -0.066; W -0.025; E 0.043; R 0.001
V32: F 0; R -0.171; I -0.083; Y -0.079; N 0.015; A -0.013; W -0.211; P -0.298; Q -0.017
